Reference: US20250188133A1, “CHIMERIC BACTERIOCINS AND METHOD FOR THE CONTROL OF PSEUDOMONAS” (priority 2022, published 2025)
Values joined by “and” are separate entries in the source; they are usually repeats but may differ in a detail not shown here. Equal values may be shown once.

Legend:
[1] = tested on: P. aeruginosa PA14; assay: agar disc-diffusion assay; assay type: cell-based; conditions: strain PA14; 0.3, 3 and 30 μg of protein spotted on discs on CAA agar lawn, overnight
Procedure, shortened: (§1)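 Disc diffusion on CAA agar (1.5%) lawns seeded from OD595=1.0 cultures diluted 100×, with 0.3-30 μg pyocin per disc and overnight incubation at 37° C before inspecting inhibition zones.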

[2] = tested on: P. aeruginosa HP40; assay: agar disc-diffusion assay; assay type: cell-based; conditions: strain HP40; 0.3, 3 and 30 μg of protein spotted on discs on CAA agar lawn, overnight
Procedure, shortened: as §1

[3] = tested on: P. aeruginosa Bu002; assay: agar disc-diffusion assay; assay type: cell-based; conditions: strain Bu002; 0.3, 3 and 30 μg of protein spotted on discs on CAA agar lawn, overnight
Procedure, shortened: as §1

[4] = tested on: P. aeruginosa PAO1; assay: murine keratitis model, invasive strain (C57BL/6 mice); assay type: in vivo
Description: The inbred mice of C57BL/6 strain of both sexes in equivalent numbers were used for the research. 2-6 months old, adult female and adult male mice were purchased from the Vilnius University vivarium of laboratory animals. The animals throughout the period of the experiment were given standard chow and drinking water ad libitum. Animals were housed in the individual plastic cages in a 12 h light/dark cycle at 21-23° C. All regulated procedures on living animals were approved by The Lithuanian Ethics Committee of Biomedical Research (Protocol no. B1-442) and were carried out in accordance with the European Union legislation of OECD (directive 2010/63/EU). The experiments were carried out in Biological research center of Lithuanian University of Health Sciences.
For P. aeruginosa infection and keratitis induction the mice were anesthetized by Ketamine and Xylazine 90:9 mg/kg intraperitoneal injection. The cornea of the left eye of each mouse was visualized under a stereoscopic microscope, and three 1 mm scratches were made using a sterile 25 gauge needle. A 10 μL aliquot containing 4×10^6 cells of P. aeruginosa ATCC 19660 (cytotoxic strain) or PAO1 ATCC 15692 (invasive strain) was applied to the corneal surface. Depending on the experiment, the treatment was started 30 min or 6 h post infection. 10 μl aliquot containing 0.14 mg of tobramycin or 20 μg of S5-PmnH (both containing 0.5% hydroxypropyl methylcellulose (HPMC)) or PBS containing 0.5% HPMC was applied as one drop of substance to the each eye. HPMC is used as artificial tears and was used in order to thicken the tears film and prolong the presence of the applied product on the surface of the cornea. The treatment was continued for five days twice daily. Mice were euthanized by cervical dislocation 1, 3, 5 days post infection, and the eyeballs were collected and homogenized for viable bacteria count.
The eyes were examined and photographed with a dissection microscope equipped with a digital camera at 1, 3 and 5 dpi to monitor the disease progression. At 1, 3 and 5 dpi disease severity was visually graded by using an established corneal damage scale: 0, the pupil was partially or fully covered by clear or slight opacity; +1, the anterior segment was partially or fully covered by slight opacity; +2, the pupil was partially or fully covered by dense opacity; +3, the entire anterior segment was covered by dense opacity; and +4, corneal perforation^40.
Histopathology experiments were carried out at Lithuanian University of Health Sciences, Department of Veterinary Pathobiology of Veterinary Academy. One randomly chosen mice of each study group was used for histopathology experiments. Enucleated eyes were preserved in 10% formaldehyde. Eyes were paraffin-embedded, cut into 3-μm-thick sections, deparaffinised, rehydrated and used for preparation of hematoxylin/eosin stained samples.

[5] = tested on: P. aeruginosa ATCC 27853; assay: murine lung colonization and treatment (CD1 mice); assay type: in vivo; conditions: 5 h post infection
Description: CD1 male mice were supplied by Charles River (Margate, UK) and were specific pathogen free. Mice were 11 to 15 g on receipt at the facility and were allowed to acclimatize for at least 7 days.
P. aeruginosa ATCC 27853 was recovered from long-term storage (−80° C.) and cultured on cystine-lactose-electrolyte-deficient (CLED) agar at 37° C. under aerobic conditions for approximately 16-24 h. 20 ml of Mueller Hinton broth was inoculated with a single well isolated colony and cultured overnight at 37° C. with shaking at 300 rpm65. The overnight broth was diluted 1:100 in Mueller Hinton broth and 100 ml was cultured in a baffle flask for ˜6 h at 37° C. with shaking at 300 rpm until the broth OD was ˜0.6 (˜mid-exponential phase). 20 ml of culture was centrifuged at 2465 g for 10 minutes and washed in PBS. The pellet was suspended in PBS and the OD600 adjusted to 0.67 (˜2.6×10^8 CFU/ml). The study inoculum was prepared from this by appropriate dilution with PBS. The inoculum concentration was confirmed by quantitative culture on Pseudomonas Selective Agar (PSA). The inoculum concentration for the study was 1.47×10^7 CFU/ml (5.87×10^5 CFU/mouse).
Mice were infected under temporary inhaled 3% isoflurane anesthesia by intranasal (IN) instillation with 40 μl of the inoculum suspension split as 20 μl/nostril.
1 hour post infection 6 mice were sacrificed in order to evaluate the pre-treatment burden in lungs. Treatments were administered IN once at 1 h post infection (50 μl split to 25 μl/nares). Three treatment groups consisting of six mice each were administered S5-PmnH (2.5, 25 and 250 μg). The fourth group of mice (n=6) was administered 200 μg Tobramycin (40 mg/ml injection solution, Hospira UK Ltd, diluted 10 times). The study was terminated at 5 hours post infection for all animals. The clinical conditions and weights were assessed and animals were immediately euthanized using an overdose of pentobarbitone. Following confirmation of death, the lungs were excised and homogenized in ice cold sterile phosphate buffered saline using a Precellys bead beater. The homogenates were quantitatively cultured onto PSA agar and incubated at 37° C. for 24 hours before colonies were counted.

B1: S5-PmnH (protein)
chain: MSNDNEVPGSMVIVAQGPDDQYAYEVPPIDSAAVAGNMFGDLIQREIYLQKNIYYPVRSIFEQGTKEKKEINKKVSDQVDGLLKQITQGKREATRQERVDVMSAVLHKMESDLEGYKKTFTKGPFIDYEKQSSLSIYEAWVKIWEKNSWEERKKYPFQQLVRDELERAVAYYKQDSLSEAVKVLRQELNKQKALKEKEDLSQLERDYRTRKANLEMKVQSELDQAGSALPPLVSPTPEQWLERATRLVTQAIADKKQLQTTNNTLIKNSPTPLEKQKAIYNGELLVDEIASLQARLVKLNAETTRRRTEKELTPDEKAAYTDAVSFVSTANEQMLQKYGANLSKVAQDMQAEIAGKKVRSYAEAMATFEKISANPAMKLNALDTQAVVDALNALDKASFADNITRLGKAFGVVGKVVQAEAIREKTVSGFQTGDWKPLMLELEAMAVGTGAGILLATSMAFFFPVFASAAAGVVVVALMMAATAAYFDAAKVDEINNLILN
modifications: Chimeric S5-PmnH
- Activity in agar disc-diffusion assay [1]: *** (activity detected with 0.3 μg of protein)
- Activity in agar disc-diffusion assay [2]: *** (activity detected with 0.3 μg of protein)
- Activity in agar disc-diffusion assay [3]: *** (activity detected with 0.3 μg of protein)
- histological examination of infected treated eyes ([4]; 1 dpi): signs of acute inflammation of cornea
- histological examination of infected treated eyes ([4]; 3 dpi): signs of acute inflammation of cornea
- histological examination of infected treated eyes ([4]; day 5): no aberrations
- average reduction of bacterial burden vs mock-treated ([4]; treatment started 6 h post infection, 1 dpi): 1.04 log 10 CFU/cornea
- viable bacteria in cornea, individual mouse ([4]; treatment started 6 h post infection, 3 dpi, third mouse): 2.38 log 10 CFU
- mice from which no viable bacteria were isolated ([4]; treatment started 6 h post infection, 3 dpi, three mice per group): two
- viable bacteria in cornea, individual mice ([4]; treatment started 6 h post infection, 5 dpi, mice with bacteria): 5.14 log 10 CFU/cornea and 3.34 log 10 CFU/cornea
- mice from which no bacteria were isolated ([4]; treatment started 6 h post infection, 5 dpi, three mice per group): one
- reduction of lung burden vs vehicle ([5]; 2.5 μg/mouse IN once 1 h post infection): 2.1 log10 CFU/g
- reduction of burden below the level of stasis (pre-treatment) ([5]; 2.5 μg/mouse IN once): 0.58 log10 CFU/g
- reduction of lung burden vs vehicle ([5]; 25 μg/mouse IN once 1 h post infection): 2.31 log10 CFU/g
- reduction of burden below the level of stasis (pre-treatment) ([5]; 25 μg/mouse IN once): 0.78 log10 CFU/g
- reduction of lung burden vs vehicle ([5]; 250 μg/mouse IN once 1 h post infection): 2.66 log10 CFU/g
- reduction of burden below the level of stasis (pre-treatment) ([5]; 250 μg/mouse IN once): 1.13 log10 CFU/g
